In paper doi:10.1101/2024.12.01.626218, “TTF2 drives mitotic replisome disassembly and MiDAS by coupling the TRAIP ubiquitin ligase to Polε” (bioRxiv, 2024):
Where no end group is shown, it is not given here. [ ]: non-standard residue; d: D form. pT = C[C@@H](OP(=O)(O)O)[C@H](N)C(=O)O

How the values were obtained:
HisSUMO-TTF2 1-100 [1] = target: T1, HisSUMO-TTF2 1-100 (mouse, UniProt Q5NC05 1-100); assay: ITC; phosphorylated T325
T1 chain: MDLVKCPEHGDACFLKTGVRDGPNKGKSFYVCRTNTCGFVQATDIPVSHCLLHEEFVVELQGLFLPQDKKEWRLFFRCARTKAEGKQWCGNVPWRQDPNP

HisSUMO-TTF2 1-100 [2] = target: T2, HisSUMO-TTF2 1-100 (mouse, UniProt Q5NC05 1-100); assay: ITC; MicroCal PEAQ-ITC; 20 µM HisSUMO-TTF2 1-100 in the cell, 200 µM TRAIP peptide injected (19 x 2 µl); 50 mM Tris-HCl pH 7.5, 100 mM NaCl, 0.5 mM TCEP; settings: both partners purified
T2 construct: mouse TTF2 residues 1-100 (tandem Zinc fingers); also called His-SUMO-tagged TTF2; recombinant form of TTF2 1-100; source: E. coli Rosetta (DE3) pLysS, purified (Ni-NTA, Superdex 200); not shown: 14His, N-terminal, kept; Smt3 (budding yeast SUMO), N-terminal, kept
T2 sequence (looked up): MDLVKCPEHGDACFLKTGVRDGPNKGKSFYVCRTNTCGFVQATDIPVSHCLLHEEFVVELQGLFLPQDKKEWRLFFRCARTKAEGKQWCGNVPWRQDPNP

[3] = target: the molecule itself; assay: mass photometry; Refeyn OneMP; TRAIP diluted to 6.4 ng/µl (~50 nM of TRAIP dimer); 25 mM Hepes-KOH pH 7.9, 150 mM NaCl, 10 mM MgOAc, 1 mM DTT
[4] = target: T3, His-SUMO-TTF2 1-100 (tandem zinc fingers) (Mus musculus, UniProt Q5NC05 1-100); assay: EMSA; 10 nM DNA; EMSA buffer (25 mM buffer component; full composition not in the material), 10 nM Cy5-DNA, 10 µl, room temperature, 10 min; Novex TBE 4-12% gel, 150 V, 40 min; settings: protein: recombinant, tags: N-terminal 14His-SUMO (yeast Smt3)
T3 sequence: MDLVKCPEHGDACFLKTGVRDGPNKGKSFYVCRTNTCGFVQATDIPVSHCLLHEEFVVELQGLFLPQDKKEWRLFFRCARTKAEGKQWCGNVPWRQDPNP

B1: peptide corresponding to mouse TRAIP 313-329 with phosphorylated T325 (peptide)
peptide: FGDEIDLNTTFDVN[pT]PPTQ
modifications: not fully specified; printed as FGDEIDLNTTFDVN**T**PPTQ
notes: mouse TRAIP; the CDK consensus (T followed by P) points to the 15th letter; also called phosphorylated peptide; source: synthetic peptide (Peptide & Elephants)
Q: For B1, which Kd (HisSUMO-TTF2 1-100 [1]) is on record?
A: Its Kd is 2300 nM.

Q: Does B1 bind (HisSUMO-TTF2 1-100 [2])?
A: Result: binds

B2: recombinant mouse TRAIP (enzyme, UniProt Q8VIG6-1 1-470, looked up)
chain: MPIRALCTICSDFFDHSRDVAAIHCGHTFHLQCLIQWFETAPSRTCPQCRIQVGKKTIINKLFFDLAQEEENVLDAEFLKNELDSVKAQLSQKDREKRDSQAIIDTLRDTLEERNATVESLQNALNKAEMLCSTLKKQMKFLEQRQDETKQAREEAHRLKCKMKTMEQIELLLQSQRSEVEEMIRDMGVGQSAVEQLAVYCVSLKKEYENLKEARKATGELADRLKKDLVSSRSKLKTLNTELDQAKLELRSAQKDLQSADQEITSLRKKLMILQGTLSLPPATNETVSRLVFESPAPVEMMNPRLHQPPFGDEIDLNTTFDVNTPPTQTSGSQHCLPKKLCLERARSPMQNVLKKVHKVSKPESQLSLGGQRCVGELDEELAGAFPLFIRNAVLGQKQPNRTTAESRCSTDVVRIGFDGLGGRTKFIQPRDTTIIRPVPVKSKAKSKQKVRIKTVSSASQPKLDTFLCQ
notes: Mw of the monomer 53.1 kDa; the tag was cut off with Ulp1; also called purified TRAIP; TRAIP ubiquitin ligase; source: E. coli Rosetta (DE3) pLysS, purified (Ni-NTA, HiTrapQ, HiTrap Heparin, Superose 6); not shown: 14His-Smt3 (budding yeast SUMO), N-terminal, cleaved
Q: With B2 as the binder, how does the “stoichiometry N” value [3] read?
A: Its value is 2.

B3: YX011 80-nt ssDNA (ssDNA)
DNA: CAGTGCCAAGCTTGCATGCCTGCAGGTCGACTCTAGAGGATCCCCGGGTACCGAGCTCGAATTCGTAATCATGGTCATAG
Q: Does B3 bind ([4]; label: 5'-Cy5)?
A: Result: no binding

B4: YX011/YX012 80-bp dsDNA (dsDNA)
DNA 1: CAGTGCCAAGCTTGCATGCCTGCAGGTCGACTCTAGAGGATCCCCGGGTACCGAGCTCGAATTCGTAATCATGGTCATAG
DNA 2: CTATGACCATGATTACGAATTCGAGCTCGGTACCCGGGGATCCTCTAGAGTCGACCTGCAGGCATGCAAGCTTGGCACTG
Q: Does B4 bind ([4]; label: 5'-Cy5 on strand 1, blunt)?
A: Result: no binding
